Results as given in the supplement of paper PMC9732359.
± gives the uncertainty stated by the source.

Assay: protein stability index of a GFP-peptide fusion (yeast GPS) (PSI 1-4); higher = more stable; sorted into four equal gates, so the index is relative within each strain
In short: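 Tiled 17-residue yeast protein peptides were fused downstream of GFP in a plasmid that also expresses Cherry, and the pooled library was carried in yeast. Mid-log cultures in leucine-free medium were sorted into four equal gates by GFP/Cherry fluorescence ratio, and plasmids from each gate were PCR-amplified and Illumina-sequenced, with reads assigned to strains by barcodes. The protein stability index for each peptide was each gate's read frequency times its gate number, summed.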

| Sequence | protein stability index (doa10∆) | protein stability index (pdr5∆) | protein stability index (san1∆) | protein stability index (ubr1∆) |
| --- | --- | --- | --- | --- |
| GGDTCSSDGALCMDSSY [POP1] | 2.24 ± 0.054 | 2.54 ± 0.051 | 1.83 ± 0.082 | 2.27 ± 0.036 |
| ILVFQVSMKANKYQIKK [RPL25] | 1.93 ± 0.052 | 2.2 ± 0.054 | 3.09 ± 0.046 | 3.03 ± 0.045 |
| VQDALLTNQLYKNHELL [SNF2] | 3.19 ± 0.068 | 3.1 ± 0.072 | 3.08 ± 0.044 | 3.14 ± 0.061 |
| KAFKICEAAVEISKKDF [SIR3] | 3.19 ± 0.13 | 2.88 ± 0.082 | 2.79 ± 0.14 | 2.85 ± 0.12 |
| VLITSYEMVIREKNALK [ISW2] | 2.33 ± 0.043 | 2.53 ± 0.053 | 2.37 ± 0.045 | 2.78 ± 0.043 |
| SSFVRQELAKSIRSRRP [PRE1] | 2.08 ± 0.12 | 2.21 ± 0.074 | 1.78 ± 0.23 | 2.12 ± 0.065 |
| KIVEIDRHIGCAMSGLT [PUP2] | 1.82 ± 0.07 | 2.32 ± 0.091 | 2 ± 0.14 | 2.17 ± 0.06 |
| VDVELITSINVENDTFI [FAS2] | 3.4 ± 0.1 | 3.37 ± 0.069 | 3.09 ± 0.086 | 3.32 ± 0.072 |
| ERHQAGKNQWFFSKLRF [RPL27A] | 3.19 ± 0.091 | 3.24 ± 0.092 | 3.09 ± 0.075 | 3.18 ± 0.046 |
| QEAFKIYQHLASHNEKD [SRP72] | 1.89 ± 0.082 | 3.08 ± 0.1 | 2.93 ± 0.15 | 2.89 ± 0.1 |
| YSKAKYPDLQPFVLAEN [CDC53] | 2.3 ± 0.095 | 2.72 ± 0.063 | 2.13 ± 0.07 | 2.26 ± 0.078 |
| KRLNGKRKYLDIPIDEM [SSN2] | 3.19 ± 0.13 | 2.97 ± 0.14 | 3.23 ± 0.078 | 3.14 ± 0.17 |
| GLRNQNMVRNNNNNTID [GRR1] | 2.75 ± 0.063 | 2.86 ± 0.071 | 2.83 ± 0.057 | 2.96 ± 0.038 |
| TNQLVLLQKMLNLLNYQ [YML103C/NUP188] | 1.99 ± 0.04 | 1.43 ± 0.03 | 1.29 ± 0.056 | 1.43 ± 0.031 |
| TEKEEAVAKAAEKKVVR [RPL17A] | 3.44 ± 0.087 | 3.35 ± 0.082 | 3.24 ± 0.053 | 3.24 ± 0.062 |
| SPFFVLDEVDAALDITN [SMC1] | 2.39 ± 0.093 | 2.78 ± 0.071 | 2.63 ± 0.066 | 2.69 ± 0.057 |
| YSTLKELLEYSDDIAEN [YCG1] | 2.81 ± 0.048 | 2.84 ± 0.053 | 2.74 ± 0.053 | 2.59 ± 0.04 |
| AVSRSMTDIWNTLIPES [ECM29] | 2.94 ± 0.067 | 3.05 ± 0.08 | 2.84 ± 0.054 | 3.03 ± 0.069 |
| DKVDDYTPEEVDKIERE [SMC4] | 1.17 ± 0.11 | 1.45 ± 0.12 | 1.32 ± 0.22 | 1.28 ± 0.11 |
| SRKAHGLNAKQLYKARM [POP1] | 3.03 ± 0.094 | 3.4 ± 0.12 | 2.96 ± 0.05 | 2.83 ± 0.034 |
| SDIIILKGEIEDYPMSS [SIR4] | – | – | 3.12 ± 0.24 | 3.48 ± 0.16 |
| GRTGNGNMGITTEMLDK [MED6] | 3.23 ± 0.069 | 3.23 ± 0.062 | 3.28 ± 0.047 | 3.27 ± 0.04 |
| NNNNNNNNNNNNDDNGN [MED2] | 3.09 ± 0.038 | 2.94 ± 0.033 | 3.227 ± 0.029 | 3.23 ± 0.034 |
| PLPTPFKVDDNVDFPSA [RPN2] | 2.94 ± 0.054 | 2.75 ± 0.043 | 2.6 ± 0.074 | 2.63 ± 0.052 |
| EEEMAPYYKYLCEEYLV [RPN7] | 2.12 ± 0.087 | 2.74 ± 0.11 | 2.5 ± 0.14 | 2.64 ± 0.093 |
| ANDEEAYIKLLDQTKDT [SNF2] | 2.98 ± 0.088 | 3.21 ± 0.072 | 3.4 ± 0.069 | 3 ± 0.1 |
| VTIWYRAPELLLGARHY [SSN3] | 1.9 ± 0.1 | 1.85 ± 0.096 | 2.07 ± 0.15 | 1.9 ± 0.072 |

| Sequence | protein stability index (doa10∆) | protein stability index (pdr5∆) | protein stability index (san1∆) | protein stability index (ubr1∆) |
| --- | --- | --- | --- | --- |
| IIKLVEGLANDPENKVP [RPS12] | 2.01 ± 0.086 | 1.77 ± 0.065 | 2.25 ± 0.092 | 2.08 ± 0.09 |
| ADINSNRLSNPQKNLLL [YOR098C/NUP1] | 3.11 ± 0.069 | 3 ± 0.07 | 2.81 ± 0.065 | 2.88 ± 0.082 |
| IVGQKNLNRAFNGDQVI [DIS3] | 3.12 ± 0.078 | 2.83 ± 0.087 | 2.76 ± 0.057 | 2.98 ± 0.078 |
| RHFWGLRVRGQHTKTTG [RPS18A] | 1.81 ± 0.062 | 1.99 ± 0.087 | 1.77 ± 0.12 | 2.16 ± 0.056 |
| KKYSSKNKYGEINSEDY [SRP68] | 3.22 ± 0.12 | 2.8 ± 0.18 | 3.34 ± 0.066 | 3.14 ± 0.053 |
| LSSHSSTNSNSKPSTAS [RPN4] | 2.61 ± 0.087 | 2.71 ± 0.082 | 2.93 ± 0.059 | 2.86 ± 0.052 |
| VPVALKGQGPFTLTYDI [YMR129W/POM152] | 2.58 ± 0.096 | 2.95 ± 0.11 | 2.83 ± 0.069 | 2.8 ± 0.061 |
| SVDIGVETILSGKARIC [FAS2] | 2.7 ± 0.12 | 2.75 ± 0.11 | 1.8 ± 0.12 | 2.78 ± 0.069 |
| TDGVIGSRTTTNHVLEV [RPO31] | 3.17 ± 0.094 | 3.62 ± 0.094 | 3.19 ± 0.13 | 3.54 ± 0.088 |
| QEPFLNSSNYAELFNND [PRP8] | 2.61 ± 0.051 | 2.86 ± 0.046 | 2.55 ± 0.071 | 2.82 ± 0.048 |
| MAKDIEISASESKFILE [RRP45] | 3.17 ± 0.092 | 3.06 ± 0.14 | 2.99 ± 0.064 | 3.02 ± 0.093 |
| YLYCLDNNITEMLEENF [YCG1] | 2.3 ± 0.05 | 2.32 ± 0.046 | 2.63 ± 0.05 | 2.73 ± 0.039 |
| PLDDAGTIGWDLGITEK [MCD1] | – | – | – | 3.05 ± 0.16 |
| KPVMEVTSSFFYRGNYT [FAS1] | 2.21 ± 0.065 | 2.11 ± 0.065 | 1.91 ± 0.12 | 2.1 ± 0.081 |
| AGGGSNKSSVRPTGGAN [MED6] | 2.93 ± 0.09 | 3.12 ± 0.1 | 2.79 ± 0.096 | 3.11 ± 0.077 |
| NRAARDRRAQRVAEKRD [RPL19A] | 2.94 ± 0.12 | 2.69 ± 0.082 | 2.85 ± 0.089 | 3.19 ± 0.06 |
| ADVHFLDCDGGFIDASC [RRP45] | 3.12 ± 0.09 | 2.9 ± 0.098 | 3.14 ± 0.055 | 2.9 ± 0.054 |
| HLIKCFFKITLQRASSK [ITC1] | 1.38 ± 0.073 | 1.19 ± 0.047 | 1.18 ± 0.12 | 1.08 ± 0.051 |
| SEDLFADGLLQVLVCTA [BRR2] | – | – | – | 2.25 ± 0.13 |
| VQKDTAIIRLHPSIYTQ [POP1] | 2.73 ± 0.29 | 2.19 ± 0.11 | – | 1.88 ± 0.14 |
| GSAITGPVGKECADLWP [RPL23A] | 2.44 ± 0.11 | 2.75 ± 0.085 | 2.83 ± 0.067 | 2.64 ± 0.064 |
| LKPSMSVALHRHSNALV [RPT3] | 1.64 ± 0.11 | 2.41 ± 0.15 | 2.51 ± 0.15 | 2.53 ± 0.22 |
| GKKKSATAVAHVKAGKG [RPS16A] | 2.86 ± 0.094 | 2.69 ± 0.073 | 2.49 ± 0.11 | 2.53 ± 0.11 |
| IVALSSEEINQYVTQIE [PRE6] | 3.1 ± 0.053 | 2.97 ± 0.053 | 3.11 ± 0.037 | 3.05 ± 0.042 |
| FEEWIKMATDNKINSRN [BRN1] | 3.27 ± 0.13 | 3.17 ± 0.096 | 3.27 ± 0.11 | 3.7 ± 0.14 |
| FVHYGEIKNDFIMVKGC [RPL3] | 2.06 ± 0.094 | 2.14 ± 0.067 | 2.1 ± 0.1 | 2.38 ± 0.076 |
